Reference: publication doi:10.1101/228536 (bioRxiv, 2017)

T1: Med15 KIX+ABD1,2,3 (Med15 1-651 Δ239-272, Δ373-483) (yeast, UniProt P19659 1-651, Δ239-272 | Δ373-483)
T1 sequence (looked up): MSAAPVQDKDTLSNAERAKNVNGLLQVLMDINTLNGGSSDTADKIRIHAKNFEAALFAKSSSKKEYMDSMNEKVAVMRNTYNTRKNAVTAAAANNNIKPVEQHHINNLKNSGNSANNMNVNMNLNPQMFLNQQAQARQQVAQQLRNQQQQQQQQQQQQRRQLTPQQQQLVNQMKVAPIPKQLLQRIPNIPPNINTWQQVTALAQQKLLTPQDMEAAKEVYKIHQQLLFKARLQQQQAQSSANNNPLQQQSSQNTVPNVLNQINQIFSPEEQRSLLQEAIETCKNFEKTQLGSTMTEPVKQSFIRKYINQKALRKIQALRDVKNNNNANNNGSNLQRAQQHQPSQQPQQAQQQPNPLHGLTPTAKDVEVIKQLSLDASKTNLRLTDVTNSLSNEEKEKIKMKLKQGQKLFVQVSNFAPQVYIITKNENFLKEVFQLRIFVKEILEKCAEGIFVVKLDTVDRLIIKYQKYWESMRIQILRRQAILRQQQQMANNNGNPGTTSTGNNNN

T2: Med15 ABD2 (Med15 277-368) (yeast, UniProt P19659 277-368)
T2 sequence (looked up): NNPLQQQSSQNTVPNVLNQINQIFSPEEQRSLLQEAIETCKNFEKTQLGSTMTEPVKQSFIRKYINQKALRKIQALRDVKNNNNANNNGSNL

T3: Med15 ABD3 (Med15 484-651) (yeast, UniProt P19659 484-651)
T3 sequence (looked up): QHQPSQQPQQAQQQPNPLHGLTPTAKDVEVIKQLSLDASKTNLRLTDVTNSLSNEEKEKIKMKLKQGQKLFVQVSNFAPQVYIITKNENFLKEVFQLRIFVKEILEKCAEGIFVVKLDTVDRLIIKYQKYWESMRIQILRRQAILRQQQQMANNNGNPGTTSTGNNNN

T4: Med15 ABD1,2,3 (Med15 158-651 Δ239-272, Δ373-483) (yeast, UniProt P19659 158-651, Δ239-272 | Δ373-483)
T4 sequence (looked up): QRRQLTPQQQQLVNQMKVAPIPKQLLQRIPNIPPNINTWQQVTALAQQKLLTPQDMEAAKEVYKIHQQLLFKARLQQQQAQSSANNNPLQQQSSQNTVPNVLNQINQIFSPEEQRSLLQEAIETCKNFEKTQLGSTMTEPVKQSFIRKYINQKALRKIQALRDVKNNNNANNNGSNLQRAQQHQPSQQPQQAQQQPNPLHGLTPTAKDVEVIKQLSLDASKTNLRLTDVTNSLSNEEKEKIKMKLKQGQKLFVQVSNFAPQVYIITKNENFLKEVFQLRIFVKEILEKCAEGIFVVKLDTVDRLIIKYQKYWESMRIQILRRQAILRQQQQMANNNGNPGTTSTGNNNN

B1: Met4 72-160 (domain or fragment, yeast, UniProt P32389 72-160, looked up)
chain: VTNRGNTNLYDHAVTPEILLEQLAYVDNFIPSLDNEFSNVDWNVNTTHNNANNNGADTFSSINANPFDLDEQLAIELSAFADDSFIFPD

Experiments:
[1] = target: T1, Med15 KIX+ABD1,2,3 (Med15 1-651 …); experiment: cross-linking
[2] = target: T2, Med15 ABD2 (Med15 277-368); experiment: ITC
[3] = target: T3, Med15 ABD3 (Med15 484-651); experiment: ITC
[4] = target: T3, Med15 ABD3 (Med15 484-651); experiment: fluorescence polarisation
[5] = target: T1, Med15 KIX+ABD1,2,3 (Med15 1-651 …); experiment: fluorescence polarisation
[6] = target: T4, Med15 ABD1,2,3 (Med15 158-651 Δ239-272, …); experiment: fluorescence polarisation
Met4 72-160 = target: B1; experiment: ITC

| Binder | Kd [2] | Kd [3] | binding result [4] | Kd [5] | Kd [6] | further results |
| --- | --- | --- | --- | --- | --- | --- |
| B1 | 20 µM | 1.36 µM | – | – | – | binding result [1]: binds |
| Oregon Green-labeled Met4 72-160 (domain or fragment, yeast, UniProt P32389 72-160, looked up, Oregon Green 488 dye, N-terminal fluorescent label) VTNRGNTNLYDHAVTPEILLEQLAYVDNFIPSLDNEFSNVDWNVNTTHNNANNNGADTFSSINANPFDLDEQLAIELSAFADDSFIFPD | – | – | binds | 0.196 µM | ~0.3 µM | – |
| Med15 ABD1 (Med15 158-238) (domain or fragment, yeast, UniProt P19659 158-238, looked up) QRRQLTPQQQQLVNQMKVAPIPKQLLQRIPNIPPNINTWQQVTALAQQKLLTPQDMEAAKEVYKIHQQLLFKARLQQQQAQ | – | – | – | – | – | binding result (Met4 72-160): binds |
| Oregon Green-labeled Ino2 1-41-(GS)3-96-160 (domain or fragment, yeast, Oregon Green 488 dye, N-terminal fluorescent label) MQQATGNELLGILDLDNDIDFETAYQMLSSNFDDQMSAHIHGSGSGSPHQPSMGFDQALGLKLSPSSSGLLSTNESNAIEQFLDNLISQDMMSSNASMNSESHLHIRSPKKQ | – | – | binds | 0.21 µM | ~0.3 µM | – |
| Ino2 1-41-(GS)3-96-160 (domain or fragment, yeast) MQQATGNELLGILDLDNDIDFETAYQMLSSNFDDQMSAHIHGSGSGSPHQPSMGFDQALGLKLSPSSSGLLSTNESNAIEQFLDNLISQDMMSSNASMNSESHLHIRSPKKQ | 34 µM | 7.8 µM | – | – | – | – |
